In PMC4107485:

How the values were obtained:
Assay in all cases: EMSA
[1] = test system: BaeR, acetyl phosphate treated (Erwinia amylovora Ea1189)
[2] = biological target: T1, CpxR (Erwinia amylovora Ea1189) (UniProt A0ABX7MGR0)
T1 sequence: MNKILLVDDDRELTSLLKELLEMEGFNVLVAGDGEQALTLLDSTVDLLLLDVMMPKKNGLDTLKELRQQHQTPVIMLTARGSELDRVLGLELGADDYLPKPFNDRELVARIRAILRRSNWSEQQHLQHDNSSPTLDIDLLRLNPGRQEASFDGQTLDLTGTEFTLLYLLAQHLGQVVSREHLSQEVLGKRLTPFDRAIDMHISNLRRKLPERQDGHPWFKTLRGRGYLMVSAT

[3] = test system: T2, BaeR (Erwinia amylovora Ea1189), ORF:3df56c72
T2 sequence: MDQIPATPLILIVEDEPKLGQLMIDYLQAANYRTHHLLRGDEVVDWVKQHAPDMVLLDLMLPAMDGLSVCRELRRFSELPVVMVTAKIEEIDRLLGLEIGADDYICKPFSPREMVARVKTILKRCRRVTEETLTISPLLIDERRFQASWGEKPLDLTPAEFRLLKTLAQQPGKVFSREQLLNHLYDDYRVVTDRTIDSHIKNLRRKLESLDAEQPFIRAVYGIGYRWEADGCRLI

Substance	binding signal (fold binding vs unphosphorylated BaeR) [1]	binding [2]	binding [3]
mdtABC upstream region	2	–	–
TGATTCTCCTGATTGATAAGTGGATAACGCAGCTGATAAGACTGGCAAACAGCGTTGCATGCGCTGCGTTGATTTGTAGCATACCATTTGCCAATACTAAATTTTCTCACCGTAGCAGCTCTTATTTAAGCCGTTATCCTTATTTCCTTCATTTTTCAGCGCCTGAAATTCGCTATCCTTGCCAGCCTGGGGGCAAGCCCTAATCCCGCCCCGCGCCCTGCTTTAATTTCACGGAGAGTAGCACCCAGGATGAAAACACCCCGACGTTTCCCCCTTATCGCCTTGACGGT (double strand) [mdtABC upstream region]	–	no binding	binds
TCTACGGTCACGGTTAAGAAACCGCGTCGTCTTTTGCGCCGTCAGCTGCAGATCACCACGCGTATGCGTGGTTTTTTTGGCGCTATTTCATGGCGATAACATATATTAAATCTCGCATTTCTTACGGAATTCTTACGCTGCCAGCATGGAACGCCAGCAGATAAGCTAAGATAATATGCTTAACTACCCACCACCTTTGGACGGGTAAGGGGCTAAAGCCATGCCCTTTACGCCGGGTTTTTGCGCGCCGGGGATTATCCTGTCGGGTGTTGTTTA (double strand) [mdtUVW upstream region]	–	no binding	no binding
